Publication PMC7586228

Tests used:
[1] = Golgi residence time, live imaging with CHX; settings: glycan lost; control: DMSO
[2] = immunofluorescence, colocalisation with GM130; settings: glycan lost; control: DMSO

## transferrin receptor (TfR): GalNAc-O-Bn
[1]
  localisation_or_trafficking: increases
[2]
  localisation_or_trafficking: changes
